This is an account of results in patent US20080063635A1 (Kyowa Kirin, published 2008).

B1: 4D11-G[1/1/4/4] (antibody, V domains shown)
VH: QLQLQESGPGLLKPSETLSLTCTVSGGSISSPGYYGGWIRQPPGKGLEWIGSIYKSGSTYHNPSLKSRVTISVDTSKNQFSLKLSSVTAADTAVYYCTRPVVRYFGWFDPWGQGTLVTVSS
VL: AIQLTQSPSSLSASVGDRVTITCRASQGISSALAWYQQKPGKAPKLLIYDASNLESGVPSRFSGSGSGTDFTLTISSLQPEDFATYYCQQFNSYPTFGQGTKVEIK
notes: Chimeric heavy chain constant region: CH1 and hinge from human IgG1 (N5KG1), CH2 and CH3 from human IgG4 (N5KG4PE); also called IgG[1/1/4/4]; N5KG1144 with 4D11 variable regions
B2: 4D11-G[4/4/1/4] (antibody, V domains shown)
VH: QLQLQESGPGLLKPSETLSLTCTVSGGSISSPGYYGGWIRQPPGKGLEWIGSIYKSGSTYHNPSLKSRVTISVDTSKNQFSLKLSSVTAADTAVYYCTRPVVRYFGWFDPWGQGTLVTVSS
VL: AIQLTQSPSSLSASVGDRVTITCRASQGISSALAWYQQKPGKAPKLLIYDASNLESGVPSRFSGSGSGTDFTLTISSLQPEDFATYYCQQFNSYPTFGQGTKVEIK
notes: Chimeric heavy chain constant region: CH1 and hinge from human IgG4 (N5KG4PE, with S228P and L235E), CH2 from human IgG1, CH3 from human IgG4; also called IgG[4/4/1/4]; N5KG4414 with 4D11 variable regions
B3: 4D11-G[4/4/4/1] (antibody, V domains shown)
VH: QLQLQESGPGLLKPSETLSLTCTVSGGSISSPGYYGGWIRQPPGKGLEWIGSIYKSGSTYHNPSLKSRVTISVDTSKNQFSLKLSSVTAADTAVYYCTRPVVRYFGWFDPWGQGTLVTVSS
VL: AIQLTQSPSSLSASVGDRVTITCRASQGISSALAWYQQKPGKAPKLLIYDASNLESGVPSRFSGSGSGTDFTLTISSLQPEDFATYYCQQFNSYPTFGQGTKVEIK
notes: Chimeric heavy chain constant region: CH1, hinge and CH2 from human IgG4 (N5KG4PE, with S228P and L235E), CH3 from human IgG1; also called IgG[4/4/4/1]; N5KG4441 with 4D11 variable regions
B4: 4D11-G[4/4/1/1] (antibody, V domains shown)
VH: QLQLQESGPGLLKPSETLSLTCTVSGGSISSPGYYGGWIRQPPGKGLEWIGSIYKSGSTYHNPSLKSRVTISVDTSKNQFSLKLSSVTAADTAVYYCTRPVVRYFGWFDPWGQGTLVTVSS
VL: AIQLTQSPSSLSASVGDRVTITCRASQGISSALAWYQQKPGKAPKLLIYDASNLESGVPSRFSGSGSGTDFTLTISSLQPEDFATYYCQQFNSYPTFGQGTKVEIK
notes: Chimeric heavy chain constant region: CH1 and hinge from human IgG4 (N5KG4PE, with S228P and L235E), CH2 and CH3 from human IgG1 (N5KG1); also called IgG[4/4/1/1]; N5KG4411 with 4D11 variable regions

In the assay the target is T1, CD40 (UniProt P25942 21-277, limits assumed).
T1 construct: whole, on cells; also called CD40 on Ramos cells
T1 sequence (P25942 21-277 limits assumed): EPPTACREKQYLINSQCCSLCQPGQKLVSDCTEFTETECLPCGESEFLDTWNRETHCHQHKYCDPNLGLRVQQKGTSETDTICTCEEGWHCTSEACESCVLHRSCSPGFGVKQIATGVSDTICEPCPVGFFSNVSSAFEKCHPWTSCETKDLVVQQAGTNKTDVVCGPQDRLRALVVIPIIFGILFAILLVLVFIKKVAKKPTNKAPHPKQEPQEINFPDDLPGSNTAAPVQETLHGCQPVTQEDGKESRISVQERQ
Put plainly: flow cytometry on Ramos cells, R-PE anti-human antibody. As to the method: A Ramos cell line was suspended in a PBS staining buffer (SB) containing 0.1% NaN₃ and 2% FCS at a concentration of 2×10⁶/ml. The cell suspension (100 μl/well) was dispensed into wells of a 96-well round-bottom plate (manufactured by Becton, Dickinson and Company). Each hybridoma culture supernatant (50 μl) was added thereto, followed by incubation at a temperature below freezing for 30 minutes. A human IgG1 antibody to human serum albumin as a negative control was adjusted to a concentration of 2 μg/ml in a hybridoma culture medium. The medium (50 μl) was added to the plate, followed by incubation at a temperature below freezing for 15 minutes. After washing the plate with SB, 50 μl of a 250-fold diluted R-PE fluorescently labeled anti-human antibody (Southern Biotechnology Associates, Inc.) was added to the plate, followed by incubation at a temperature below freezing for 15 minutes. After washing with SB twice, the plate was suspended in 300 to 500 μl of a FACS buffer, and the fluorescence intensity of each cell was measured using FACS (FACSort, FACScan, manufactured by Becton, Dickinson and Company).
As for B1, the binding result is reported as “binds”. To B2 belongs “binds”. With B3, the binding result was “binds”. Consider B4, for which the binding result was “binds”.
